Data set [1] addresses T1, CCK2R (Rattus norvegicus, UniProt P30553).
T1 construct: host or cells: AR42J cells
T1 sequence (P30553 1-452): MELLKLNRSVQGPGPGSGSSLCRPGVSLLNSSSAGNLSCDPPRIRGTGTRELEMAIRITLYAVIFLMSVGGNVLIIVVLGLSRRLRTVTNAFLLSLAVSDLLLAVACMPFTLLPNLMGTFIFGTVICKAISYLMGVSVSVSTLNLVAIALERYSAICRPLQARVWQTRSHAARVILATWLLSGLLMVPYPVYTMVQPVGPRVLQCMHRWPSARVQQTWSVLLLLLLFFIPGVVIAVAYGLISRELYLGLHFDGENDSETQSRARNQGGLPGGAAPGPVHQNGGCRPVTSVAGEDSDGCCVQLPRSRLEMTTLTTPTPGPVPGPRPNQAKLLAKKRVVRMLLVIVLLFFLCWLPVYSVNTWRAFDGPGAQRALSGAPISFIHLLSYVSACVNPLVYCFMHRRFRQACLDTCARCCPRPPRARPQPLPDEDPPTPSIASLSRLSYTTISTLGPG
In words: Competitive cell-binding assay on AR42J cells with 125I-C3 as competitive ligand. The method in brief:
(§1)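 Rat AR42J cells (1~3×10^6 cells/mL) in RPMI-1640 with 0.25% BSA incubated with 125I-C1 or 125I-C3 (0.02 μCi/well) plus test compound (0-10000 nM) for 1 h at 37° C., n=3. Unbound ligand removed by filtration; bound radioactivity γ-counted; IC50 by nonlinear regression.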

Data set [2] addresses T2, SSTR2 (Rattus norvegicus, UniProt P30680).
T2 construct: host or cells: AR42J cells
As to the kind of experiment: Competitive cell-binding assay on AR42J cells with 125I-C1 as competitive ligand. The method in brief:
as §1

The nature of data set [3]: in vivo. The settings on record: BALB/c nude, mouse, in vivo, iv, total radioactivity. The procedure, abridged:
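Compounds labelled with ^177Lu in 0.5 M NaOAc pH 4.5 at 95° C for 15 min, then used directly or diluted in PBS with 3 mg/mL ascorbate. BALB/c nude mice bore subcutaneous AR42J flank xenografts (0.05-0.50 g). Organs excised at 4, 24 and 72 h post-injection and γ-counted for % ID and % ID/g.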

[4] abbreviates: T/K Tumor/Kidney ratio, 177Lu-labeled, 24 hours after dosing.
Where [5] appears, read: T/L Tumor/Liver ratio, 177Lu-labeled, 24 hours after dosing.
Setting [6] is: T/P Tumor/Pancreas ratio, 177Lu-labeled, 24 hours after dosing.
Setting [7] is: T/Sp Tumor/Spleen ratio, 177Lu-labeled, 24 hours after dosing.
[8] abbreviates: T/St Tumor/Stomach ratio, 177Lu-labeled, 24 hours after dosing.
The mark [9] stands for this setting: uptake Kidney, 177Lu-labeled, 24 hours after dosing (Table 5).
[10] abbreviates: uptake Liver, 177Lu-labeled, 24 hours after dosing (Table 5).
Where [11] appears, read: uptake Pancreas, 177Lu-labeled, 24 hours after dosing (Table 5).
The mark [12] stands for this setting: uptake Spleen, 177Lu-labeled, 24 hours after dosing (Table 5).
The mark [13] stands for this setting: uptake Stomach, 177Lu-labeled, 24 hours after dosing (Table 5).
[14] abbreviates: uptake Tumor, 177Lu-labeled, 24 hours after dosing (Table 5).

The tissue uptake is the percentage of the injected dose found per gram of tissue.

pIC50: −log10 of the molar value. Read-outs that look alike come from different tables or passages of the source.

T2 sequence (P30680 whole entry): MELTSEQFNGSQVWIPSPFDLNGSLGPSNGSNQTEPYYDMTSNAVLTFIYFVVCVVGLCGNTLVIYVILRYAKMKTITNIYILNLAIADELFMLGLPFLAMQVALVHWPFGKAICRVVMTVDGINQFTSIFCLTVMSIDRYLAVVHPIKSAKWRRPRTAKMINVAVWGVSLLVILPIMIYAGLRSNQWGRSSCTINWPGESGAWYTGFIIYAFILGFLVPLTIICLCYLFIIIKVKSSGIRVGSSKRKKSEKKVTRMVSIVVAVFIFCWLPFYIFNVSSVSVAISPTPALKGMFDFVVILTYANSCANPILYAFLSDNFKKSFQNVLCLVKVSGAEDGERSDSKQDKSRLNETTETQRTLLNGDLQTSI

As for `C[C@@H](O)[C@H](NC(=O)[C@@H]1CSSC[C@H](NC(=O)[C@@H](Cc2ccccc2)NC(=O)[C@H](CCCCNC(=O)CC[C@H](NC(=O)CNC(=O)c2cccc(NC(=O)N[C@@H]3CN(C4CCCCC4)c4ccccc4N(CC(=O)C(C)(C)C)C3=O)c2)C(=O)O)NC(=O)COCCOCCNC(=O)CCC(C(=O)O)N2CCN(CC(=O)O)CCN(CC(=O)O)CCN(CC(=O)O)CC2)C(=O)N[C@@H](Cc2ccc(O)cc2)C(=O)N[C@H](Cc2c[nH]c3ccccc23)C(=O)N[C@@H](CCCCN)C(=O)N[C@@H]([C@@H](C)O)C(=O)N1)C(=O)O` (stereo partly drawn) [Compound I-19, DOTAGA- OEG- K(-gE- G- Z360)- f[CYwKTC]T- OH], in data set [1] (based on mean IC50, C-2 = 1.00), the “Relative Binding Affinity CCK2R” value is reported as 270. Besides, the “Relative Binding Affinity SSTR2” value in data set [2] (based on mean IC50, C-1 = 1.00) is listed as 0.46. The tissue to tissue ratio at 24 h in data set [3] (T/K Tumor/Kidney ratio) turned out to be 0.6; in data set [3] (T/L Tumor/Liver ratio) it was 35; in data set [3] (T/P Tumor/Pancreas ratio), 15; in data set [3] (T/Sp Tumor/Spleen ratio) it was 46; in data set [3] (T/St Tumor/Stomach ratio), 4.3. Also, the tissue uptake at 24 h in data set [3] (uptake Kidney) worked out at 51.6 %ID/g; in data set [3] (uptake Liver), 0.96 %ID/g; in data set [3] (uptake Pancreas), 2.07 %ID/g; in data set [3] (uptake Spleen), 0.68 %ID/g; in data set [3] (uptake Stomach) it was 7.24 %ID/g; in data set [3] (uptake Tumor), 31.3 %ID/g.
Take `C[C@@H](O)[C@H](NC(=O)[C@@H]1CSSC[C@H](NC(=O)[C@@H](Cc2ccccc2)NC(=O)[C@H](CCCCNC(=O)c2cccc(NC(=O)N[C@@H]3CN(C4CCCCC4)c4ccccc4N(CC(=O)C(C)(C)C)C3=O)c2)NC(=O)CN2CCN(CC(=O)O)CCN(CC(=O)O)CCN(CC(=O)O)CC2)C(=O)N[C@@H](Cc2ccc(O)cc2)C(=O)N[C@H](Cc2c[nH]c3ccccc23)C(=O)N[C@@H](CCCCN)C(=O)N[C@@H]([C@@H](C)O)C(=O)N1)C(=O)O` [Compound I-34, DOTA-K(Z360)-f[CYwKTC]T-OH]: the “Relative Binding Affinity CCK2R” value in data set [1] turned out to be 5.9. For the same molecule, the “Relative Binding Affinity SSTR2” value in data set [2] turned out to be 1.49. The tissue to tissue ratio at 24 h amounted to 3.7 in data set [3] (setting [4]); 1.1 in data set [3] (setting [5]); 7 in data set [3] (setting [6]); 2.4 in data set [3] (setting [7]); 4 in data set [3] (setting [8]). In addition, the tissue uptake at 24 h in data set [3] (setting [9]) stood at 6.1 %ID/g; in data set [3] (setting [10]), 19.8 %ID/g; in data set [3] (setting [11]), 3.2 %ID/g; in data set [3] (setting [12]), 9.5 %ID/g; in data set [3] (setting [13]), 5.7 %ID/g; in data set [3] (setting [14]), 22.7 %ID/g.
As to `C[C@@H](O)[C@H](NC(=O)[C@@H]1CSSC[C@H](NC(=O)[C@@H](Cc2ccccc2)NC(=O)[C@H](CCCCNC(=O)COCCOCCNC(=O)c2cccc(NC(=O)N[C@@H]3CN(C4CCCCC4)c4ccccc4N(CC(=O)C(C)(C)C)C3=O)c2)NC(=O)CN2CCN(CC(=O)O)CCN(CC(=O)O)CCN(CC(=O)O)CC2)C(=O)N[C@@H](Cc2ccc(O)cc2)C(=O)N[C@H](Cc2c[nH]c3ccccc23)C(=O)N[C@@H](CCCCN)C(=O)N[C@@H]([C@@H](C)O)C(=O)N1)C(=O)O` [Compound I-36, DOTA-K(-OEG-Z360)-f[CYwKTC]T-OH], the pIC50 in data set [1] is 8.38; in data set [2], 8.80. Also, the “Relative Binding Affinity CCK2R” value in data set [1] came to 4.0. In addition, the “Relative Binding Affinity SSTR2” value in data set [2] came out at 1.76. For the same molecule, the tissue to tissue ratio at 24 h in data set [3] (setting [4]) is 2.9; in data set [3] (setting [5]), 4.3; in data set [3] (setting [6]), 13; in data set [3] (setting [7]), 36; in data set [3] (setting [8]), 11. The tissue uptake at 24 h in data set [3] (setting [9]) was 7.4 %ID/g; in data set [3] (setting [10]), 5 %ID/g; in data set [3] (setting [11]), 1.6 %ID/g; in data set [3] (setting [12]), 0.6 %ID/g; in data set [3] (setting [13]) it was 2 %ID/g; in data set [3] (setting [14]), 21.6 %ID/g.
In the case of `C[C@@H](O)[C@H](NC(=O)[C@@H]1CSSC[C@H](NC(=O)[C@@H](Cc2ccccc2)NC(=O)COCCOCCNC(=O)COCCOCCNC(=O)[C@H](CCCCNC(=O)c2cccc(NC(=O)N[C@@H]3CN(C4CCCCC4)c4ccccc4N(CC(=O)C(C)(C)C)C3=O)c2)NC(=O)CN2CCN(CC(=O)O)CCN(CC(=O)O)CCN(CC(=O)O)CC2)C(=O)N[C@@H](Cc2ccc(O)cc2)C(=O)N[C@H](Cc2c[nH]c3ccccc23)C(=O)N[C@@H](CCCCN)C(=O)N[C@@H]([C@@H](C)O)C(=O)N1)C(=O)O` [Compound I-39, DOTA-K(Z360)-OEG-OEG-f[CYwKTC]T-OH], the pIC50 in data set [1] (AR42J cells, 125I-C3 competitive ligand, 37° C. 1 h, read-out: CCK2R/IC50) is 8.31; in data set [2] (AR42J cells, 125I-C1 competitive ligand, 37° C. 1 h, read-out: SSTR2/IC50) it was 9.44. Besides, the “Relative Binding Affinity CCK2R” value in data set [1] (based on mean IC50, C-2 = 1.00) stood at 3.4. Moreover, the “Relative Binding Affinity SSTR2” value in data set [2] (based on mean IC50, C-1 = 1.00) is given as 7.67. Further, the tissue to tissue ratio at 24 h in data set [3] (T/K Tumor/Kidney ratio) was 2.3; in data set [3] (T/L Tumor/Liver ratio), 9.9; in data set [3] (T/P Tumor/Pancreas ratio) it was 29; in data set [3] (T/Sp Tumor/Spleen ratio) it was 89; in data set [3] (T/St Tumor/Stomach ratio), 5.9. Also, the tissue uptake at 24 h in data set [3] (uptake Kidney) was found to be 12 %ID/g; in data set [3] (uptake Liver) it was 2.78 %ID/g; in data set [3] (uptake Pancreas) it was 0.94 %ID/g; in data set [3] (uptake Spleen), 0.31 %ID/g; in data set [3] (uptake Stomach), 4.63 %ID/g; in data set [3] (uptake Tumor), 27.5 %ID/g.
In the case of `C[C@@H](O)[C@H](NC(=O)[C@@H]1CSSC[C@H](NC(=O)[C@@H](Cc2ccccc2)NC(=O)[C@H](CCCCNC(=O)COCCOCCNC(=O)COCCOCCNC(=O)c2cccc(NC(=O)N[C@@H]3CN(C4CCCCC4)c4ccccc4N(CC(=O)C(C)(C)C)C3=O)c2)NC(=O)CN2CCN(CC(=O)O)CCN(CC(=O)O)CCN(CC(=O)O)CC2)C(=O)N[C@@H](Cc2ccc(O)cc2)C(=O)N[C@H](Cc2c[nH]c3ccccc23)C(=O)N[C@@H](CCCCN)C(=O)N[C@@H]([C@@H](C)O)C(=O)N1)C(=O)O` [Compound I-42, DOTA-K(-OEG-OEG-Z360)-f]CYwKTC]T-OH], in data set [1] (based on mean IC50, C-2 = 1.00), the “Relative Binding Affinity CCK2R” value is recorded as 115. Also, the “Relative Binding Affinity SSTR2” value in data set [2] (based on mean IC50, C-1 = 1.00) is 0.54. The tissue to tissue ratio at 24 h in data set [3] (T/K Tumor/Kidney ratio) was 1.1; in data set [3] (T/L Tumor/Liver ratio), 3.3; in data set [3] (T/P Tumor/Pancreas ratio), 12; in data set [3] (T/Sp Tumor/Spleen ratio), 62; in data set [3] (T/St Tumor/Stomach ratio), 8.8. The tissue uptake at 24 h in data set [3] (uptake Kidney) is 17.8 %ID/g; in data set [3] (uptake Liver), 5.6 %ID/g; in data set [3] (uptake Pancreas), 1.6 %ID/g; in data set [3] (uptake Spleen), 0.3 %ID/g; in data set [3] (uptake Stomach), 2.1 %ID/g; in data set [3] (uptake Tumor) it was 18.7 %ID/g.

(Values after US20260248972A1, “DUAL RECEPTOR TARGETING RADIOLIGANDS AND USES THEREOF RELATED APPLICATIONS” (priority 2022, published 2026).)
